In patent US20220033784A1 (priority 2020, published 2022):
Like-named read-outs stand apart in the source and are kept apart here.

Experiments:
Assay in all cases: cell-based or functional assay
[1] = biological target: T1, human high-affinity IL-2 receptor complex, IL-2 CD25/CD122/CD132 (α/β/γ), on cells (human, UniProt P01589 22-272; P14784 27-551; P31785 23-369)
T1 sequence (looked up) 1: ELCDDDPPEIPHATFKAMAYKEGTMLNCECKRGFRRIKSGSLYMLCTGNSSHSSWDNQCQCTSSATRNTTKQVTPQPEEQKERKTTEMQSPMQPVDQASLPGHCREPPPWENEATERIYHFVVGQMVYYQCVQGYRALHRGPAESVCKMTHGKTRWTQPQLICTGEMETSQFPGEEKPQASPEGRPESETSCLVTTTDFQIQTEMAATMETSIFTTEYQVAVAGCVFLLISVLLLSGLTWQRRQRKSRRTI
T1 sequence (looked up) 2: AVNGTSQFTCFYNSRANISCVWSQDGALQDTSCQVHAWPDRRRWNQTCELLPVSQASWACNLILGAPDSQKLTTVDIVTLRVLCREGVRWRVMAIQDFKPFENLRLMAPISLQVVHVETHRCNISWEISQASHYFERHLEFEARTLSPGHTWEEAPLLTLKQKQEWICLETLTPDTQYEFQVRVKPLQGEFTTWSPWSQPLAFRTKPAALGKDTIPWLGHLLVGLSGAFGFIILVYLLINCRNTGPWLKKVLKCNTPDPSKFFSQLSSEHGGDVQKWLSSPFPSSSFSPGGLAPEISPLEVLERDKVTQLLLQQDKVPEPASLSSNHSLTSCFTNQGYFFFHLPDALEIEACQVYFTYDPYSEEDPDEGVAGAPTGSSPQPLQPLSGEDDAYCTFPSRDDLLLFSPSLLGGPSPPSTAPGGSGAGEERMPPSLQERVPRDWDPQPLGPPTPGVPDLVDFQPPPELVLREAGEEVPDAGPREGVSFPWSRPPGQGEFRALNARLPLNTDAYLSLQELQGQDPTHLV
T1 sequence (looked up) 3: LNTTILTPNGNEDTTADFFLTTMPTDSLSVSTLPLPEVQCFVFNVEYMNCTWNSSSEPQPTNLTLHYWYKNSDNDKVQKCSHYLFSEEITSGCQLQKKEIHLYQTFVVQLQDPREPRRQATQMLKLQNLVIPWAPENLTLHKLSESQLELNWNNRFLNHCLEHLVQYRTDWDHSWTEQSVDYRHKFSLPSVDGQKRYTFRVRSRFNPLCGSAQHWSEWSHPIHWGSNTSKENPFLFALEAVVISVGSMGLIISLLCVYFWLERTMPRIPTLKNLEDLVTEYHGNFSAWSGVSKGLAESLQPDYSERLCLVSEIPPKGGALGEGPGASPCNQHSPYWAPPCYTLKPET

[2] = biological target: T1, human high-affinity IL-2 receptor …; remark: listed apart in the source
[3] = biological target: T2, human intermediate-affinity IL-2 receptor complex, IL-2 CD122/CD132 (β/γ), on cells (human, UniProt P14784 27-551; P31785 23-369)
T2 sequence (looked up) 1: T1 sequence (looked up) 2
T2 sequence (looked up) 2: T1 sequence (looked up) 3

[4] = biological target: T2, human intermediate-affinity IL-2 …; remark: listed apart in the source
[5] = biological target: T1, human high-affinity IL-2 receptor …; remark: listed apart in the source
[6] = biological target: T2, human intermediate-affinity IL-2 …; remark: listed apart in the source
[7] = biological target: T1, human high-affinity IL-2 receptor …; remark: listed apart in the source
[8] = biological target: T2, human intermediate-affinity IL-2 …; remark: listed apart in the source
[9] = biological target: T1, human high-affinity IL-2 receptor …; remark: listed apart in the source
[10] = biological target: T2, human intermediate-affinity IL-2 …; remark: listed apart in the source

EC50 (read off the curve), pSTAT5 MFI in Treg cells of hPBMC [1]: ~8 nM | EC50 (read off the curve), pSTAT5 MFI in Treg cells of hPBMC [2]: ~8 nM | EC50 (read off the curve), pSTAT5 MFI in NK cells of hPBMC [3]: ~3 nM | EC50 (read off the curve), pSTAT5 MFI in NK cells of hPBMC [4]: ~3 nM | EC50 (read off the curve), pSTAT5 MFI in Treg cells of hPBMC [5]: ~8 nM | EC50, pSTAT5 in CD8 T cells of hPBMCs (flow cytometry) [6]: 11.3 nM | EC50, pSTAT5 in NK cells of hPBMCs (flow cytometry) [6]: 1.53 nM | EC50, pSTAT5 in Treg cells of hPBMCs (flow cytometry) [7]: 5.88 nM | EC50, pSTAT5 induction in HH T cells (ELISA) [8]: 24.9 nM | EC50, pSTAT5 induction in iTreg cells (ELISA) [9]: 0.31 nM | EC50 (read off the curve), pSTAT5 MFI in NK cells of hPBMC [10]: ~3 nM
B1: Fc-IL2v (Fc fusion)
chain: GGGGSGGGGSAPASSSTKKTQLQLEHLLLDLQMILNGINNYKNPKLTRMLTAKFAMPKKATELKHLQCLEEELKPLEEVLNGAQSKNFHLRPRDLISNINVIVLELKGSETTFMCEYADETATIVEFLNRWITFAQSIISTLT
